Measurements as given in the RNAGym collection of RNA variant scans (doi:10.1073/pnas.2313332121).

B1: TPR t1 (parent)
chain: GACCAAUCUGCCCUCAGAGCUCGAGAACAUCUUCGGAUGCAGAGGAGGCAGGCUUCGGUGGCGCGAUAGCGCCAACGUCCUCAACCUCCAAUGCAUCCCACCACAUGAUGAUGCCUGAAGAGCCUUGGUUUUUUG

Variants of: B1
Assay: polymerase ribozyme fitness, log enrichment relative to wild type (log ratio); higher = more active; in vitro selection for triplet polymerase activity
Outline: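 Each subunit of a heterodimeric triplet polymerase ribozyme was represented by a PCR-built, transcribed mutant library that underwent triplicate single-round in vitro selection with frozen incubation at −7 °C. Extended constructs were recovered by gel excision, streptavidin-bead capture and RT-PCR, and Illumina sequencing of input and output libraries kept genotypes with ≥10 input reads and ≥1 read per output. Fitness is the logarithm of genotype enrichment relative to wild-type enrichment, from inverse-variance-weighted replicate averages, with a logarithm base of 2.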

Variant | polymerase ribozyme fitness (log ratio)
A6U C86U C88A A121U | 0.522
U7G C40U | 0.849
C8A C12U C40A | -0.186
U7G G71C A111G C115U G120U | -4.01
C8A G45U C56U A84C A95U | -1.21
U7C U14A A46U | -2.65
U7A A37G G52A C56G G120U | -0.68
U7A A50U G77A | -1
C8A U21C C62U A83G G117A | -1.21
A6U U59C A119G | 0.571
U7G C70U G93C | -0.518
U7G G44A C62G A74U C80G G117C | -7
U7A C20A A26G C82U U125A | -3.24
C8A G42A C62A C114U | -2.59
A6U G10U C53U G122C C123A U125A | -0.333
U7A U33A | -3.98
C8A G19C U59A C82A | -3.12
A6U G10C G61A C89A U125A | -2.03
U7C U14C C70U | -2.11
U7A C20U C73U G120A U129C U131G | -0.869
U7G G10A C49U U112G | -2.64
C8A G36U G42A C62U | -2.62
U7G C70G | -2.23
C8A C22G C31U G36C G61C | -6.63

Variant | polymerase ribozyme fitness (log ratio)
U7C A16U C34A C49G | -4.01
U7G C56G C86G U96G | -2.15
A6U G110A | -0.89
U7C G19U U54C A66C | -5.92
U7G G51U G60U A111C | -2.64
C8A A18C U21G | -4.13
U7A G71C U81G | -5.8
C8A C62U A74C C89A C104A U112C | -3.01
A6U G42U C89G C115A U125C | -3.18
U7A C15A C62U C64U G93U | -1.99
U7C C62U A111U U133A | -2.88
U7C U14G A37C | -1.12
U7A G44A A68G | -5.14
U7C C89U U109A | -4.17
U7C A37U G60A | -0.133
C8A G35U | -4.85
A6U U38A G63C C79U A84G C89U | -3.61
U7A G113U | -2.15
U7G G42A U81A U109A U130C | -5.79
U7A A41G A66C | -1.26
C8A A37G C62G C72G U112G G127A | -5.98
U7A C13A | -0.751
U7A C11A C40U G93C A119U G122U | 0.441
U7G C70U A83C C97A | -5.37

Variant | polymerase ribozyme fitness (log ratio)
U7A G17U A74U G117A A118G | -4.25
C8A A16G A43C | -1.35
U7A C49U C53U U59A C76A | -0.656
C8A G93C | 0.003
C8A A41U U112C | 0.774
A6U G48A | -0.413
U7G C49U C56U U78C C94U A111C | -0.959
U7A G69U C88G G122A | -1.88
U7G G44U G52C C82G G113A C124U | -3
U7C C40A C56G | -1.43
U7C G10A C11G A91U A111G | -1.99
U7G C104A | -2.23
U7A C13U G19C G113U | -1.96
C8A C64U A121G | 1.81
C8A C28A C56U C82U U106A C115A | -2.02
U7G C28U G48A G61A | -1.28
U7C C8A C62A | -0.194
A6U G10A G71A | 0.159
U7C C28U C49U A50C G120A G122A | -2.33
U7G G52U C64U C123G | 1.52
A6U G52A A74U | -0.0324
C8A G10A G47A | -1.74
U7G G35U G57U U87A A121G | -3.9
U7G U109C | -3.87

Variant | polymerase ribozyme fitness (log ratio)
U7A A29U C72U U106A | -1.06
U7A G39A G42C G45C A83U G110A | -5.83
C8A G44A G57A G77A G110U C123U | -4.41
C8A C22G G113U C114G | -3.52
C8A G58C | 0.847
C8A | 0.459
U7G G61U C70G | -5.24
U7A A41U C72A C85U | -0.761
U7A A41U G71A C85U U87A | -4.06
A6U C97G | -3.24
U7C G42C C72A C88U C115U U133A | -0.456
C8A G48U U59G A105C U112C G120A | -1.08
U7G G36C | 0.162
A6U G42U C49U C101U G110U C123G | -6.14
C8A G61C A119G U126G | -2.44
C8A G48A C101G C115U | -4.25
U7A C72U G77C G93C G113A G120A | -2.99
U7A G48U C94A C97U | -2.33
A6U U106G G113C | -3.9
U7G G120C | 0.815
C8A C94A A119G | -0.132
C8A C40G | 0.0349
A6U C73U | 0.309
U7A C53G A83G A84C | -0.766

Variant | polymerase ribozyme fitness (log ratio)
A6U U9C | 0.514
U7G C53G C115U U116G | -0.555
C8A U14C G93U | -0.798
U7G A46U G61C U112A | -1.98
U7G C88U | -0.443
C8A A43C G57A C72G U96C A103G A108G U109G | -5.5
C8A C62A U130G | -0.621
U7G G23A | -4.28
C8A C64G A111G A121C U129A | -6.98
U7A A29U G60U C97U G113C G120U U133A | -4.07
U7G G77C | 0.424
C8A G61U A83C A100C | -0.341
A6U G19U | -2.29
U7A C79G C88G U112A | -1.87
U7G C56A G57U C89A | -0.967
C8A A75U C85A A90C G93A | -3.24
A6U G45U C101A | -2.89
C8A C123U | 1.44
A6U G57A | -0.751
U7G C70A C72U G93C C115U | -4.07
A6U C88A | -0.42
A6U C88U | -1.02
U7C C8G C12U G19C C115A G128C | -1.55
U7A U87A C89G | -1.86

Variant | polymerase ribozyme fitness (log ratio)
C8A C64A U112C U125A | -5.5
A6U G120A | 0.678
A6U U96C | -0.215
A6U G69A C115U G120C | -5.82
U7G A103C G120A | -2.83
U7G G19A G44C C114G G120U | -3.21
U7G U55G C82U | 0.425
U7C C8U C34G C73U | -5.57
C8A A41U C49G G61A U81C A100U | -8.29
U7C C13A C53U | -0.742
C8A A46U A74U A100U C102U C115A | -2.37
U7G C56A A84G U133G G135U | -0.824
U7G U21C G47U C56U | -1.15
U7A U55A U116C | -0.198
C8A A46G C101U | -0.289
A6U U9G A27U C34A G44U C64U | -6.87
U7A C73G | -1.63
U7G G107A | -4.15
U7A G52A G69C | -2.28
U7G A41G C53A C72G C79U A90U A111C | -2.28
A6U U9C G60C | -0.604
C8A A66U C124G | 0.659
U7C C13U C15A G45A C72A | -0.674
C8A A50U U59C G63C | -4.31

Variant | polymerase ribozyme fitness (log ratio)
U7A A103U | -4.28
C8A C34G G110C U129G | -8.1
U7A A46U A50U G60A G69U U96C | -1.72
U7G A84G U133G G135U | 0.51
U7C A100U | -0.808
U7C G93A U132C | -0.396
U7G A18U A121U | 0.525
C8A C40U A103C | -3.75
U7C G39A C115U G128C | -3.58
U7A C11A G77A U81G | -1.65
U7G U32G C98A | -5.15
U7A A27C C49U U55G | -4.4
U7A A18U U59C | -2.69
C8A G19A U87C A91C G113C G127C | -2.18
C8A G47C U133G | -1.25
U7G G69C C86U | -1.06
U7A C12A C20A G42U | -3.2
C8A C53U C56A A75G | 0.188
U7G G17U C28U A90C U106A | -2.82
U7G C72U | 0.255
U7G C72G | 0.441
C8A C49U | 0.0763
A6U G52C C56U C80G A121G | -1.97
